Changes are numbered by the printed parent chain. Numbers in names are those of the source.
B1: h-sEPCR^Snoop (recombinant human soluble endothelial cell protein C receptor with GSGGSG linker, SnoopTag and C-terminal His-tag) (receptor)
chain: SQDASDGLQRLHMLQISYFRDPYHVWYQGNASLGGHLTHVLEGPDTNTTIIQLQPLQEPESWARTQSGLQSYLLQFHGLVRLVHQERTLAFPLTIRCFLGCELPPEGSRAHVFFEVAVNGSSFVSFRPERALWQADTQVTSGVVTFTLQQLNAYNRTRYELREFLEDTCVQYVQKHISAENTKGSQTSRSYTSGSGGSGKLGDIEFIKVNKHHHHHH
notes: Expressed in HEK293 cells, purified on nickel; The printed entry still carries the N-terminal signal peptide; also called human sEPCR^Snoop; r-sEPCR
B2: h-sEPCR-E86A^Snoop (receptor)
chain: B1 chain with E86A

Assays:
[1] = molecular target: T1, protein C (zymogen) (UniProt P04070 43-461); assay: inferred from APC generation assay on endothelial cells with E86A control
T1 construct: also called PC
Method: (§1) Protein C (100 nM) and thrombin (5 nM) were added with h-sEPCR^Snoop (1 μM) or h-sEPCR-E86A^Snoop (1 μM) an sEPCR variant unable to bind to PC/APC, then incubated for 30 minutes. […] The net effect of this restriction of APC generation. Statistical analysis of experimental data was performed using one-way ANOVA and Tukey's multiple comparison post hoc analysis. ns signifies non-significant, * signifies a p value of <0.05.
as §1, with “Assessment of h-sEPCR^Snoop Inhibition of Protein C Activation by the Thrombin-Thrombomodulin Complex on Endothelial Cells Protein” for “Protein”, “h-sEPCR-E86ASnoop” for “h-sEPCR-E86A^Snoop”, “<0.05 (see FIG. 5).” for “<0.05.”

[2] = molecular target: T1, protein C (zymogen); assay: control in APC generation assay on endothelial cells (protein C 100 nM, thrombin 5 nM)
Method: as §1
as §1, with “Assessment of h-sEPCR^Snoop Inhibition of Protein C Activation by the Thrombin-Thrombomodulin Complex on Endothelial Cells Protein” for “Protein”, “h-sEPCR-E86ASnoop” for “h-sEPCR-E86A^Snoop”, “<0.05 (see FIG. 5).” for “<0.05.”

T1 sequence (P04070 43-461): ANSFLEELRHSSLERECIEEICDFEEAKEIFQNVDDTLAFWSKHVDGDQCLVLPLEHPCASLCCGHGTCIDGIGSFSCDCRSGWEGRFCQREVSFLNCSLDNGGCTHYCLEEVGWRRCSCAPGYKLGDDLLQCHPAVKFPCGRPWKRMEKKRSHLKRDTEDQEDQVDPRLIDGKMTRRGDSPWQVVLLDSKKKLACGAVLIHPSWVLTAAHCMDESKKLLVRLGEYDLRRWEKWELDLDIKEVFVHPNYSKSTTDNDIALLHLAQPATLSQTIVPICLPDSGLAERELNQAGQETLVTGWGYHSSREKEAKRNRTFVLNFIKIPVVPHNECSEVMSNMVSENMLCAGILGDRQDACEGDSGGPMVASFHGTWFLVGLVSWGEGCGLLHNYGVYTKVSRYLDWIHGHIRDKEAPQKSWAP

Row | Binder | binding result [1] | binding result [2]
1 | B1 | binds | 
2 | B2 |  | no binding (tested: 1 µM)
